Data: IntAct's records for PubMed 28864920

B1: DNA repair protein RAD51 homolog 3 (Homo sapiens), O43502 (parent)
chain: MRGKTFRFEMQRDLVSFPLSPAVRVKLVSAGFQTAEELLEVKPSELSKEVGISKAEALETLQIIRRECLTNKPRYAGTSESHKKCTALELLEQEHTQGFIITFCSALDDILGGGVPLMKTTEICGAPGVGKTQLCMQLAVDVQIPECFGGVAGEAVFIDTEGSFMVDRVVDLATACIQHLQLIAEKHKGEEHRKALEDFTLDNILSHIYYFRCRDYTELLAQVYLLPDFLSEHSKVRLVIVDGIAFPFRHDLDDLSLRTRLLNGLAQQMISLANNHRLAVILTNQMTTKIDRNQALLVPALGESWGHAATIRLIFHWDRKQRLATLYKSPSQKECTVLFQIKPQGFRDTVVTSACSLQTEGSLSTRKRSRDPEEEL
partner: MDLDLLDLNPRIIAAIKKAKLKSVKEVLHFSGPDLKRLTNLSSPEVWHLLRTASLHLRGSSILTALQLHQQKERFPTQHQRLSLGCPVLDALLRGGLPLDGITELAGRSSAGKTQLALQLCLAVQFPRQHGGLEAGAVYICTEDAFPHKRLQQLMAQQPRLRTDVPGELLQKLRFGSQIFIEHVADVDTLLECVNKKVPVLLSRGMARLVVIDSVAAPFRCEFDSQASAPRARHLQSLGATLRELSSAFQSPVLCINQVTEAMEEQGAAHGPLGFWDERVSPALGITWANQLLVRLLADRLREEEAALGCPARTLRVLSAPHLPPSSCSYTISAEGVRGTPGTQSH
B2: DNA repair protein XRCC3 (Homo sapiens), O43542 (parent)
chain: B1 partner
B3: DNA repair protein RAD51 homolog 1 (Homo sapiens), Q06609 (parent)
chain: MAMQMQLEANADTSVEEESFGPQPISRLEQCGINANDVKKLEEAGFHTVEAVAYAPKKELINIKGISEAKADKILAEAAKLVPMGFTTATEFHQRRSEIIQITTGSKELDKLLQGGIETGSITEMFGEFRTGKTQICHTLAVTCQLPIDRGGGEGKAMYIDTEGTFRPERLLAVAERYGLSGSDVLDNVAYARAFNTDHQTQLLYQASAMMVESRYALLIVDSATALYRTDYSGRGELSARQMHLARFLRMLLRLADEFGVAVVITNQVVAQVDGAAMFAADPKKPIGGNIIAHASTTRLYLRKGRGETRICKIYDSPCLPEAEAMFAINADGVGDAKD
partner: B1 partner
B4: DNA repair protein XRCC3 (Homo sapiens), O43542 (parent)
chain: B1 partner
partner: B1 chain
B5: DNA repair protein RAD51 homolog 3 (Homo sapiens), O43502 (parent)
chain: B1 chain
partner: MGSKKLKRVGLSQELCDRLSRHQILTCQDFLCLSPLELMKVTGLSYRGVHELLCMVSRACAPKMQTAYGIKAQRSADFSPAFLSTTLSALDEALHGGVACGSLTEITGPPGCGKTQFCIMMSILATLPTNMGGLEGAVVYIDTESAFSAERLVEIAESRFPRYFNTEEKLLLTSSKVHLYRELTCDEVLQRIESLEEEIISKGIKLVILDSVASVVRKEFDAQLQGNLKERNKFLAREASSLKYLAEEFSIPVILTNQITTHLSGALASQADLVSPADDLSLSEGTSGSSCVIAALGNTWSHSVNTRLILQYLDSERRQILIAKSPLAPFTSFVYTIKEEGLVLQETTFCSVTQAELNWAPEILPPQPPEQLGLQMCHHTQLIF

Variants of: B1
Settings: with xrcc3_human XRCC3, O43542

| effect of a mutation on the interaction | Variant |
| --- | --- |
| disrupting interaction strength | MRGKTFRFEMQRDLVSFPLSPAVRVKLVSAGFQTAEELLEVKPSELSKEVGISKAEALETLQIIRRECLTNKPRYAGTSESHKKCTALELLEQEHTQGFIITFCSALDDILGGGVPLMKTTEICGAPGVGKTQLRMQLAVDVQIPECFGGVAGEAVFIDTEGSFMVDRVVDLATACIQHLQLIAEKHKGEEHRKALEDFTLDNILSHIYYFRCRDYTELLAQVYLLPDFLSEHSKVRLVIVDGIAFPFRHDLDDLSLRTRLLNGLAQQMISLANNHRLAVILTNQMTTKIDRNQALLVPALGESWGHAATIRLIFHWDRKQRLATLYKSPSQKECTVLFQIKPQGFRDTVVTSACSLQTEGSLSTRKRSRDPEEEL [C135R] |

Variants of: B2
Settings: with rad51_human RAD51, Q06609

| effect of a mutation on the interaction | Variant |
| --- | --- |
| disrupting interaction strength | MDLDLLDLNPRIIAAIKKAKLKSVKEVLHFSGPDLKRLTNLSSPEVWHLLRTASLHLRGSSILTALQLHQQKERFPTQHQRLSLGCPVLDALLRGGLPLDGITELAGRSSAGKTQLALQLCLAVQFPRQHGGLEAGAVYICTEDAFPHKRLQQLMAQQPRLRTDVPGELLQKLRFGSQIFIEHVADVDTLLECVNKKVPVLLSRGMARLVVIDSVAAPFRCEFDSQASAPRARHLQSLGATLRELSSAFQSPVLCINQVTEAMEEQGAAHGPLGFWDERVSPALGITWANQLLVRLPADRLREEEAALGCPARTLRVLSAPHLPPSSCSYTISAEGVRGTPGTQSH [L297P] |
| disrupting interaction strength | MDLDLLDLNPRIIAAIKKAKLKSVKEVLHFSGPDLKRLTNLSSPEVWHLLRTASLHLRGSSILTALQLHQQKERFPTQHQRLSLGCPVLDALLRGGLPLDGITELAGRSSAGKTQLALQLCLAVQFPRQHGGLEAGAVYICTEDAFPHKRLQQLMAQQPRLRTDVPGELLQKLRFGSQIFIEHVADVDTLLECVNKKVPVLLSRGMARLVVIDSVAAPFRCEFDSQASAPRARHLQSLGATLRELSSAFQSPVLCINQVTEAMEEQGAAHGPLGFWDERVSPALGITWANQLLVRLLADRLREEEAALGCPARTLRVLSAPHLPPSSCSYTISAEGERGTPGTQSH [V337E] |

Variants of: B3
Settings: with xrcc3_human XRCC3, O43542

| effect of a mutation on the interaction | Variant |
| --- | --- |
| with no effect | MAMQMQLEANADTSVEEESFGPQPISRLEQCGINANDVKKLEEAGFHTVEAVAYVPKKELINIKGISEAKADKILAEAAKLVPMGFTTATEFHQRRSEIIQITTGSKELDKLLQGGIETGSITEMFGEFRTGKTQICHTLAVTCQLPIDRGGGEGKAMYIDTEGTFRPERLLAVAERYGLSGSDVLDNVAYARAFNTDHQTQLLYQASAMMVESRYALLIVDSATALYRTDYSGRGELSARQMHLARFLRMLLRLADEFGVAVVITNQVVAQVDGAAMFAADPKKPIGGNIIAHASTTRLYLRKGRGETRICKIYDSPCLPEAEAMFAINADGVGDAKD [A55V] |
| decreasing interaction strength | MAMQMQLEANADTSVEEESFGPQPISRLEQCGINANDVKKLEEAGFHTVEAVAYAPKKELINIKGISEAKADKILAEADKLVPMGFTTATEFHQRRSEIIQITTGSKELDKLLQGGIETGSITEMFGEFRTGKTQICHTLAVTCQLPIDRGGGEGKAMYIDTEGTFRPERLLAVAERYGLSGSDVLDNVAYARAFNTDHQTQLLYQASAMMVESRYALLIVDSATALYRTDYSGRGELSARQMHLARFLRMLLRLADEFGVAVVITNQVVAQVDGAAMFAADPKKPIGGNIIAHASTTRLYLRKGRGETRICKIYDSPCLPEAEAMFAINADGVGDAKD [A79D] |

Variants of: B4
Settings: with ra51c_human RAD51C

| effect of a mutation on the interaction | Variant |
| --- | --- |
| disrupting interaction strength | MDLDLLDLNPRIIAAIKKAKLKSVKEVLHFSGPDLKRLTNLSSPEVWHLLRTASLHLRGSSILTALQLHQQKERFPTQHQRLSLGCPVLDALLRGGLPLDGITELAGRSSAGKTQLALQLCLAVQFPRQHGGLEAGAVYICTEDAFPHKRLQQLMAQQPRLRTDVPGELLQKLRFGSQIFIEHVADVDTLLECVNKKVPVLLSRGMARLVVIDSVAAPFRCEFDSQASAPRARHLQSLGATLRELSSAFQSPVLCINQVTEAMEEQGAAHGPLGFWDERVSPALGITWANQLLVRLPADRLREEEAALGCPARTLRVLSAPHLPPSSCSYTISAEGVRGTPGTQSH [L297P] |
| disrupting interaction strength | MDLDLLDLNPRIIAAIKKAKLKSVKEVLHFSGPDLKRLTNLSSPEVWHLLRTASLHLRGSSILTALQLHQQKERFPTQHQRLSLGCPVLDALLRGGLPLDGITELAGRSSAGKTQLALQLCLAVQFPRQHGGLEAGAVYICTEDAFPHKRLQQLMAQQPRLRTDVPGELLQKLRFGSQIFIEHVADVDTLLECVNKKVPVLLSRGMARLVVIDSVAAPFRCEFDSQASAPRARHLQSLGATLRELSSAFQSPVLCINQVTEAMEEQGAAHGPLGFWDERVSPALGITWANQLLVRLLADRLREEEAALGCPARTLRVLSAPHLPPSSCSYTISAEGERGTPGTQSH [V337E] |

Variants of: B5
Settings: with ra51b_human RAD51B

| effect of a mutation on the interaction | Variant |
| --- | --- |
| disrupting interaction strength | MRGKTFRFEMQRDLVSFPLSPAVRVKLVSAGFQTAEELLEVKPSELSKEVGISKAEALETLQIIRRECLTNKPRYAGTSESHKKCTALELLEQEHTQGFIITFCSALDDILGGGVPLMKTTEICGAPGVGKTQLRMQLAVDVQIPECFGGVAGEAVFIDTEGSFMVDRVVDLATACIQHLQLIAEKHKGEEHRKALEDFTLDNILSHIYYFRCRDYTELLAQVYLLPDFLSEHSKVRLVIVDGIAFPFRHDLDDLSLRTRLLNGLAQQMISLANNHRLAVILTNQMTTKIDRNQALLVPALGESWGHAATIRLIFHWDRKQRLATLYKSPSQKECTVLFQIKPQGFRDTVVTSACSLQTEGSLSTRKRSRDPEEEL [C135R] |
